Data published in ChEMBL document CHEMBL4414660, “Effect of Modifier Structure on the Activation of Leukotriene A4 Hydrolase Aminopeptidase Activity” (J Med Chem, 2019).

Legend:
Conditions in all cases: Homo sapiens
[1] = compound: COc1ccc(Cc2ccc(-c3csc(N)n3)cc2)cc1; test: (§1) Activation of N-terminal (His)6 and Xpress-tagged LTA4H (unknown origin) expressed in Escherichia coli BL21(DE3) cells assessed as increase in aminopeptidase activity by measuring Kcat for p-nitroanilide release at 0.1 uM using L-Alanine-p-nitroanilide incubated for 10 mins by UV plate reader based assay
[2] = compound: COc1ccc(Cc2ccccc2)cc1; test: as §1
[3] = compound: Cc1ccc(Cc2ccc(-c3csc(N)n3)cc2)cc1; test: as §1
[4] = compound: Nc1nc(-c2ccc(Cc3ccc(C(F)(F)F)cc3)cc2)cs1; test: as §1
[5] = compound: Nc1nc(-c2ccc(Cc3ccccc3)cc2)cs1; test: as §1
[6] = compound: COc1ccc(Cc2ccc(-c3csc(N)n3)cc2)cc1; test: (§2) Activation of N-terminal (His)6 and Xpress-tagged LTA4H (unknown origin) expressed in Escherichia coli BL21(DE3) cells assessed as increase in aminopeptidase activity by measuring Kcat for p-nitroanilide release at 0.5 uM using L-Alanine-p-nitroanilide incubated for 10 mins by UV plate reader based assay
[7] = compound: COc1ccc(Cc2ccccc2)cc1; test: as §2
[8] = compound: Cc1ccc(Cc2ccc(-c3csc(N)n3)cc2)cc1; test: as §2
[9] = compound: Nc1nc(-c2ccc(Cc3ccc(C(F)(F)F)cc3)cc2)cs1; test: as §2
[10] = compound: Nc1nc(-c2ccc(Cc3ccccc3)cc2)cs1; test: as §2
[11] = compound: COc1ccc(Cc2ccc(-c3csc(N)n3)cc2)cc1; test: (§3) Activation of N-terminal (His)6 and Xpress-tagged LTA4H (unknown origin) expressed in Escherichia coli BL21(DE3) cells assessed as increase in aminopeptidase activity by measuring Kcat for p-nitroanilide release at 1 uM using L-Alanine-p-nitroanilide incubated for 10 mins by UV plate reader based assay
[12] = compound: COc1ccc(Cc2ccccc2)cc1; test: as §3
[13] = compound: Cc1ccc(Cc2ccc(-c3csc(N)n3)cc2)cc1; test: as §3
[14] = compound: Nc1nc(-c2ccc(Cc3ccc(C(F)(F)F)cc3)cc2)cs1; test: as §3
[15] = compound: Nc1nc(-c2ccc(Cc3ccccc3)cc2)cs1; test: as §3
[16] = compound: COc1ccc(Cc2ccc(-c3csc(N)n3)cc2)cc1; test: (§4) Activation of N-terminal (His)6 and Xpress-tagged LTA4H (unknown origin) expressed in Escherichia coli BL21(DE3) cells assessed as increase in aminopeptidase activity by measuring Kcat for p-nitroanilide release at 5 uM using L-Alanine-p-nitroanilide incubated for 10 mins by UV plate reader based assay
[17] = compound: COc1ccc(Cc2ccccc2)cc1; test: as §4
[18] = compound: Cc1ccc(Cc2ccc(-c3csc(N)n3)cc2)cc1; test: as §4
[19] = compound: Nc1nc(-c2ccc(Cc3ccc(C(F)(F)F)cc3)cc2)cs1; test: as §4
[20] = compound: Nc1nc(-c2ccc(Cc3ccccc3)cc2)cs1; test: as §4
[21] = compound: COc1ccc(Cc2ccc(-c3csc(N)n3)cc2)cc1; test: (§5) Activation of N-terminal (His)6 and Xpress-tagged LTA4H (unknown origin) expressed in Escherichia coli BL21(DE3) cells assessed as increase in aminopeptidase activity by measuring Kcat for p-nitroanilide release at 10 uM using L-Alanine-p-nitroanilide incubated for 10 mins by UV plate reader based assay
[22] = compound: COc1ccc(Cc2ccccc2)cc1; test: as §5
[23] = compound: Cc1ccc(Cc2ccc(-c3csc(N)n3)cc2)cc1; test: as §5
[24] = compound: Nc1nc(-c2ccc(Cc3ccc(C(F)(F)F)cc3)cc2)cs1; test: as §5
[25] = compound: Nc1nc(-c2ccc(Cc3ccccc3)cc2)cs1; test: as §5
[26] = compound: COc1ccc(Cc2ccc(-c3csc(N)n3)cc2)cc1; test: (§6) Activation of N-terminal (His)6 and Xpress-tagged LTA4H (unknown origin) expressed in Escherichia coli BL21(DE3) cells assessed as increase in aminopeptidase activity by measuring Km for p-nitroanilide release at 0.1 uM using L-Alanine-p-nitroanilide incubated for 10 mins by UV plate reader based assay
[27] = compound: COc1ccc(Cc2ccccc2)cc1; test: as §6
[28] = compound: Cc1ccc(Cc2ccc(-c3csc(N)n3)cc2)cc1; test: as §6
[29] = compound: Nc1nc(-c2ccc(Cc3ccc(C(F)(F)F)cc3)cc2)cs1; test: as §6
[30] = compound: Nc1nc(-c2ccc(Cc3ccccc3)cc2)cs1; test: as §6
[31] = compound: COc1ccc(Cc2ccc(-c3csc(N)n3)cc2)cc1; test: (§7) Activation of N-terminal (His)6 and Xpress-tagged LTA4H (unknown origin) expressed in Escherichia coli BL21(DE3) cells assessed as increase in aminopeptidase activity by measuring Km for p-nitroanilide release at 0.5 uM using L-Alanine-p-nitroanilide incubated for 10 mins by UV plate reader based assay
[32] = compound: COc1ccc(Cc2ccccc2)cc1; test: as §7
[33] = compound: Cc1ccc(Cc2ccc(-c3csc(N)n3)cc2)cc1; test: as §7
[34] = compound: Nc1nc(-c2ccc(Cc3ccc(C(F)(F)F)cc3)cc2)cs1; test: as §7
[35] = compound: Nc1nc(-c2ccc(Cc3ccccc3)cc2)cs1; test: as §7
[36] = compound: COc1ccc(Cc2ccc(-c3csc(N)n3)cc2)cc1; test: (§8) Activation of N-terminal (His)6 and Xpress-tagged LTA4H (unknown origin) expressed in Escherichia coli BL21(DE3) cells assessed as increase in aminopeptidase activity by measuring Km for p-nitroanilide release at 1 uM using L-Alanine-p-nitroanilide incubated for 10 mins by UV plate reader based assay
[37] = compound: COc1ccc(Cc2ccccc2)cc1; test: as §8

B1: Leukotriene A-4 hydrolase (Homo sapiens), P09960 (protein)
chain: MPEIVDTCSLASPASVCRTKHLHLRCSVDFTRRTLTGTAALTVQSQEDNLRSLVLDTKDLTIEKVVINGQEVKYALGERQSYKGSPMEISLPIALSKNQEIVIEISFETSPKSSALQWLTPEQTSGKEHPYLFSQCQAIHCRAILPCQDTPSVKLTYTAEVSVPKELVALMSAIRDGETPDPEDPSRKIYKFIQKVPIPCYLIALVVGALESRQIGPRTLVWSEKEQVEKSAYEFSETESMLKIAEDLGGPYVWGQYDLLVLPPSFPYGGMENPCLTFVTPTLLAGDKSLSNVIAHEISHSWTGNLVTNKTWDHFWLNEGHTVYLERHICGRLFGEKFRHFNALGGWGELQNSVKTFGETHPFTKLVVDLTDIDPDVAYSSVPYEKGFALLFYLEQLLGGPEIFLGFLKAYVEKFSYKSITTDDWKDFLYSYFKDKVDVLNQVDWNAWLYSPGLPPIKPNYDMTLTNACIALSQRWITAKEDDLNSFNATDLKDLSSHQLNEFLAQTLQRAPLPLGHIKRMQEVYNFNAINNSEIRFRWLRLCIQSKWEDAIPLALKMATEQGRMKFTRPLFKDLAAFDKSHDQAVRTYQEHKASMHPVTAMLVGKDLKVD
kcat [1]: 9.98 s⁻¹ | kcat [2]: 3.01 s⁻¹ | kcat [3]: 21.1 s⁻¹ | kcat [4]: 1.91 s⁻¹ | kcat [5]: 9.63 s⁻¹ | kcat [6]: 25.9 s⁻¹ | kcat [7]: 5.54 s⁻¹ | kcat [8]: 31.3 s⁻¹ | kcat [9]: 5.09 s⁻¹ | kcat [10]: 21.1 s⁻¹ | kcat [11]: 32 s⁻¹ | kcat [12]: 8.68 s⁻¹ | kcat [13]: 32.5 s⁻¹ | kcat [14]: 8.23 s⁻¹ | kcat [15]: 31.9 s⁻¹ | kcat [16]: 45.2 s⁻¹ | kcat [17]: 23.9 s⁻¹ | kcat [18]: 34.3 s⁻¹ | kcat [19]: 20.9 s⁻¹ | kcat [20]: 42.2 s⁻¹ | kcat [21]: 44.1 s⁻¹ | kcat [22]: 30.3 s⁻¹ | kcat [23]: 35.6 s⁻¹ | kcat [24]: 23.2 s⁻¹ | kcat [25]: 39.6 s⁻¹ | Km [26]: 2050 µM | Km [27]: 980 µM | Km [28]: 3300 µM | Km [29]: 2270 µM | Km [30]: 2170 µM | Km [31]: 4180 µM | Km [32]: 910 µM | Km [33]: 3110 µM | Km [34]: 4210 µM | Km [35]: 2990 µM | Km [36]: 4750 µM | Km [37]: 1030 µM
